What was measured:
[1] = biological target: NGF; test: cell-based or functional assay
[2] = biological target: FGFR3; test: cell-based or functional assay

Chain of NGF (P01138 122-241): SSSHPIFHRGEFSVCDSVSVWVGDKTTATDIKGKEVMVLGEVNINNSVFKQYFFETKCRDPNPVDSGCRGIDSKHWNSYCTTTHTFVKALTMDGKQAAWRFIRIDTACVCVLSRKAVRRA

B1: FGF18 SEED (HO110) (other)
chain: EPKSSDKTHTCPPCPAPEAAGGPSVFLFPPKPKDTLMISRTPEVTCVVVDVSHEDPEVKFNWYVDGVEVHNAKTKPREEQYNSTYRVVSVLTVLHQDWLNGKEYKCKVSNKALGAPIEKTISKAKGQPREPQVYTLPPPSEELALNELVTLTCLVKGFYPSDIAVEWLQGSQELPREKYLTWAPVLDSDGSFFLYSILRVAAEDWKKGDTFSCSVMHEALHNRFTQKSLDRSPGKEPKSSDKTHTEENVDFRIHVENQTRARDDVSRKQLRLYQLYSRTSGKHIQVLGRRISARGEDGDKYAQLLVETDTFGSQVRIKGKETEFYLCMNRKGKLVGKPDGTSKECVFIEKVLENNYTALMSAKYSGWYVGFTKKGRPRKGPKTRENQQDVHFMKRYPKGQPELQKPFKYTTVTK
heavy: QVQLQESGPGLVKPSETLSLTCTVSGFSLIGYDLNWIRQPPGKGLEWIGIIWGDGTTDYNSAVKSRVTISKDTSKNQFSLKLSSVTAADTAVYYCARGGYWYATSYYFDYWGQGTLVTVSSASTKGPSVFPLAPSSKSTSGGTAALGCLVKDYFPEPVTVSWNSGALTSGVHTFPAVLQSSGLYSLSSVVTVPSSSLGTQTYICNVNHKPSNTKVDKKVEPKSCDKTHTCPPCPAPEAAGGPSVFLFPPKPKDTLMISRTPEVTCVVVDVSHEDPEVKFNWYVDGVEVHNAKTKPREEQYNSTYRVVSVLTVLHQDWLNGKEYKCKVSNKALGAPIEKTISKAKGQPREPQVYTLPPPSEELALNELVTLTCLVKGFYPSDIAVEWLQGSQELPREKYLTWAPVLDSDGSFFLYSILRVAAEDWKKGDTFSCSVMHEALHNRFTQKSLDRSPGK
light: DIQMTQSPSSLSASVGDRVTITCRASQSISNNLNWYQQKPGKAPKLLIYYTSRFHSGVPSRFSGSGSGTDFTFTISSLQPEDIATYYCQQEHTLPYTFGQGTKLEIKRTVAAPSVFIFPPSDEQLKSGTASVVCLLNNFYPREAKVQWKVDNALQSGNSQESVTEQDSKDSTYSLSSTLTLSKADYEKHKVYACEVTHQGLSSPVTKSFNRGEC
B1 was tested, and the “anti-NGF IC50 (nM), U2OS TrkA_p75 assay; construct from expiCHO-S” value (“anti-NGF IC50 (nM) … from expiCHO-S” for short) [1] was 0.89 nM and the “FGF18 EC50 (nM), BaF3/FGFR3 assay; construct from expiCHO-S” value [2] was 0.02 nM.

B2: FGF18 SEED (HO113) (other)
chain: EPKSSDKTHTCPPCPAPEAAGGPSVFLFPPKPKDTLMISRTPEVTCVVVDVSHEDPEVKFNWYVDGVEVHNAKTKPREEQYNSTYRVVSVLTVLHQDWLNGKEYKCKVSNKALGAPIEKTISKAKGQPREPQVYTLPPPSEELALNELVTLTCLVKGFYPSDIAVEWLQGSQELPREKYLTWAPVLDSDGSFFLYSILRVAAEDWKKGDTFSCSVMHEALHNRFTQKSLDRSPGKGGGGSEPKSSDKTHTGGGGSEENVDFRIHVENQTRARDDVSRKQLRLYQLYSRTSGKHIQVLGRRISARGEDGDKYAQLLVETDTFGSQVRIKGKETEFYLCMNRKGKLVGKPDGTSKECVFIEKVLENNYTALMSAKYSGWYVGFTKKGRPRKGPKTRENQQDVHFMKRYPKGQPELQKPFKYTTVTKRSRRIRPTHPA
heavy: QVQLQESGPGLVKPSETLSLTCTVSGFSLIGYDLNWIRQPPGKGLEWIGIIWGDGTTDYNSAVKSRVTISKDTSKNQFSLKLSSVTAADTAVYYCARGGYWYATSYYFDYWGQGTLVTVSSASTKGPSVFPLAPSSKSTSGGTAALGCLVKDYFPEPVTVSWNSGALTSGVHTFPAVLQSSGLYSLSSVVTVPSSSLGTQTYICNVNHKPSNTKVDKKVEPKSCDKTHTCPPCPAPEAAGGPSVFLFPPKPKDTLMISRTPEVTCVVVDVSHEDPEVKFNWYVDGVEVHNAKTKPREEQYNSTYRVVSVLTVLHQDWLNGKEYKCKVSNKALGAPIEKTISKAKGQPREPQVYTLPPPSEELALNELVTLTCLVKGFYPSDIAVEWLQGSQELPREKYLTWAPVLDSDGSFFLYSILRVAAEDWKKGDTFSCSVMHEALHNRFTQKSLDRSPGK
light: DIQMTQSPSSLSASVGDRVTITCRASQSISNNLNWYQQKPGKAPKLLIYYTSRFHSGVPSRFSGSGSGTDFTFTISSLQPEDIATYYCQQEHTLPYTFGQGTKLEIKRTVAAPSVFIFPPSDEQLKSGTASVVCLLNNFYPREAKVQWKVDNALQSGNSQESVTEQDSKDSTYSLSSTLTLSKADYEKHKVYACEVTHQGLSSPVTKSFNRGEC
In the case of B2, the “anti-NGF IC50 (nM) … from expiCHO-S” value [1] is reported as 0.95 nM and the “FGF18 EC50 (nM), BaF3/FGFR3 assay; construct from expiCHO-S” value [2] is reported as 0.1 nM.

B3: FGF18_scFv tanezumab (LH) (other)
chain: EENVDFRIHVENQTRARDDVSRKQLRLYQLYSRTSGKHIQVLGRRISARGEDGDKYAQLLVETDTFGSQVRIKGKETEFYLCMNRKGKLVGKPDGTSKECVFIEKVLENNYTALMSAKYSGWYVGFTKKGRPRKGPKTRENQQDVHFMKRYPKGQPELQKPFKYTTVTKGGGGSGGGGSGGGGSDIQMTQSPSSLSASVGDRVTITCRASQSISNNLNWYQQKPGKAPKLLIYYTSRFHSGVPSRFSGSGSGTDFTFTISSLQPEDIATYYCQQEHTLPYTFGQGTKLEIKGGGGSGGGGSGGGGSQVQLQESGPGLVKPSETLSLTCTVSGFSLIGYDLNWIRQPPGKGLEWIGIIWGDGTTDYNSAVKSRVTISKDTSKNQFSLKLSSVTAADTAVYYCARGGYWYATSYYFDYWGQGTLVTVSS
For B3, the “anti-NGF IC50 (nM), U2OS TrkA_p75 assay; construct from HEK293” value [1] was 0.43 nM and the “FGF18 EC50 (nM), BaF3/FGFR3 assay; construct from HEK293” value [2] was 0.16 nM.

B4: FGF18 SEED (HOF3) (other)
light: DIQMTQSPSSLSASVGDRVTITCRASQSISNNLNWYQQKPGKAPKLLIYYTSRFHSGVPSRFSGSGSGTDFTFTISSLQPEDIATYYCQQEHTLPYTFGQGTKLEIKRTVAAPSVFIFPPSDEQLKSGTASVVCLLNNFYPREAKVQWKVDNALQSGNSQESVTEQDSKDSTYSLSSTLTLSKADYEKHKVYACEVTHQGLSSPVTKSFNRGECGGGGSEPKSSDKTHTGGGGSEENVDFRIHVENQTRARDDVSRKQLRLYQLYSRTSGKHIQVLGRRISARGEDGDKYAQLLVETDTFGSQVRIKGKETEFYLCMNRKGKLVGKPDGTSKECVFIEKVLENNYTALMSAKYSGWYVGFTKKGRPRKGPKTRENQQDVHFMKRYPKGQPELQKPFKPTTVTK
heavy: QVQLQESGPGLVKPSETLSLTCTVSGFSLIGYDLNWIRQPPGKGLEWIGIIWGDGTTDYNSAVKSRVTISKDTSKNQFSLKLSSVTAADTAVYYCARGGYWYATSYYFDYWGQGTLVTVSSASTKGPSVFPLAPSSKSTSGGTAALGCLVKDYFPEPVTVSWNSGALTSGVHTFPAVLQSSGLYSLSSVVTVPSSSLGTQTYICNVNHKPSNTKVDKKVEPKSC
B4 was tested, and the “anti-NGF IC50 (nM) … from expiCHO-S” value [1] was 0.98 nM and the “FGF18 EC50 (nM), BaF3/FGFR3 assay; construct from expiCHO-S” value [2] was 0.05 nM.

B5: FGF18 SEED (HO124) (other)
chain: EENVDFRIHVENQTRARDDVSRKQLRLYQLYSRTSGKHIQVLGRRISARGEDGDKYAQLLVETDTFGSQVRIKGKETEFYLCMNRKGKLVGKPDGTSKECVFIEKVLENNYTALMSAKYSGWYVGFTKKGRPRKGPKTRENQQDVHFMKRYPKGQPELQKPFKYTTVTKGGSGGSGSGSEPKSSDKTHTCPPCPAPEAAGGPSVFLFPPKPKDTLMISRTPEVTCVVVDVSHEDPEVKFNWYVDGVEVHNAKTKPREEQYNSTYRVVSVLTVLHQDWLNGKEYKCKVSNKALGAPIEKTISKAKGQPREPQVYTLPPPSEELALNELVTLTCLVKGFYPSDIAVEWLQGSQELPREKYLTWAPVLDSDGSFFLYSILRVAAEDWKKGDTFSCSVMHEALHNRFTQKSLDRSPGK
heavy: QVQLQESGPGLVKPSETLSLTCTVSGFSLIGYDLNWIRQPPGKGLEWIGIIWGDGTTDYNSAVKSRVTISKDTSKNQFSLKLSSVTAADTAVYYCARGGYWYATSYYFDYWGQGTLVTVSSASTKGPSVFPLAPSSKSTSGGTAALGCLVKDYFPEPVTVSWNSGALTSGVHTFPAVLQSSGLYSLSSVVTVPSSSLGTQTYICNVNHKPSNTKVDKKVEPKSCDKTHTCPPCPAPEAAGGPSVFLFPPKPKDTLMISRTPEVTCVVVDVSHEDPEVKFNWYVDGVEVHNAKTKPREEQYNSTYRVVSVLTVLHQDWLNGKEYKCKVSNKALGAPIEKTISKAKGQPFRPEVHLLPPSREEMTKNQVSLTCLARGFYPKDIAVEWESNGQPENNYKTTPSRQEPSQGTTTFAVTSKLTVDKSRWQQGNVFSCSVMHEALHNHYTQKTISLSPGK
light: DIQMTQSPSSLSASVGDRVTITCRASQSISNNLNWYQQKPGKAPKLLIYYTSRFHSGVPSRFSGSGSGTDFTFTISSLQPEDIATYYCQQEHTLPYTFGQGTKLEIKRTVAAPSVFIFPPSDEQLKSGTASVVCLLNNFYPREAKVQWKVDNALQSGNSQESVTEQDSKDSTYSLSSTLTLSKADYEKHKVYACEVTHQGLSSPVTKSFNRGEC
With B5 the “anti-NGF IC50 (nM) … from expiCHO-S” value [1] was 0.89 nM and the “FGF18 EC50 (nM), BaF3/FGFR3 assay; construct from expiCHO-S” value [2] was 0.07 nM.

B6: FGF18 SEED (HO114) (other)
heavy: QVQLQESGPGLVKPSETLSLTCTVSGFSLIGYDLNWIRQPPGKGLEWIGIIWGDGTTDYNSAVKSRVTISKDTSKNQFSLKLSSVTAADTAVYYCARGGYWYATSYYFDYWGQGTLVTVSSASTKGPSVFPLAPSSKSTSGGTAALGCLVKDYFPEPVTVSWNSGALTSGVHTFPAVLQSSGLYSLSSVVTVPSSSLGTQTYICNVNHKPSNTKVDKKVEPKSCDKTHTCPPCPAPEAAGGPSVFLFPPKPKDTLMISRTPEVTCVVVDVSHEDPEVKFNWYVDGVEVHNAKTKPREEQYNSTYRVVSVLTVLHQDWLNGKEYKCKVSNKALGAPIEKTISKAKGQPFRPEVHLLPPSREEMTKNQVSLTCLARGFYPKDIAVEWESNGQPENNYKTTPSRQEPSQGTTTFAVTSKLTVDKSRWQQGNVFSCSVMHEALHNHYTQKTISLSPGK
chain: EPKSSDKTHTCPPCPAPEAAGGPSVFLFPPKPKDTLMISRTPEVTCVVVDVSHEDPEVKFNWYVDGVEVHNAKTKPREEQYNSTYRVVSVLTVLHQDWLNGKEYKCKVSNKALGAPIEKTISKAKGQPREPQVYTLPPPSEELALNELVTLTCLVKGFYPSDIAVEWLQGSQELPREKYLTWAPVLDSDGSFFLYSILRVAAEDWKKGDTFSCSVMHEALHNRFTQKSLDRSPGK
light: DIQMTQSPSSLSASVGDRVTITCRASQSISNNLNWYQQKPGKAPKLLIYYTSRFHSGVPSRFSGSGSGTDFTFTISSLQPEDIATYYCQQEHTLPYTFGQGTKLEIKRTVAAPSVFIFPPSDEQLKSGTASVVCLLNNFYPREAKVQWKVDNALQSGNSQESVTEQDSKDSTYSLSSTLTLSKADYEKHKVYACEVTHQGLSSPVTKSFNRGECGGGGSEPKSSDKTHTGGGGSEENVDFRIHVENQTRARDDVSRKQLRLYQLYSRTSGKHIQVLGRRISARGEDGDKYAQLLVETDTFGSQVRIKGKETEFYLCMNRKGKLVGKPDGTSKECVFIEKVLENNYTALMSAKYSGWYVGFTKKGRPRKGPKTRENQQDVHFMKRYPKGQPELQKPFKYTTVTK
B6 was tested, and the “anti-NGF IC50 (nM) … from expiCHO-S” value [1] was 0.88 nM and the “FGF18 EC50 (nM), BaF3/FGFR3 assay; construct from expiCHO-S” value [2] was 0.02 nM.

B7: FGF18_scFv fasinumab (LH) (other)
chain: EENVDFRIHVENQTRARDDVSRKQLRLYQLYSRTSGKHIQVLGRRISARGEDGDKYAQLLVETDTFGSQVRIKGKETEFYLCMNRKGKLVGKPDGTSKECVFIEKVLENNYTALMSAKYSGWYVGFTKKGRPRKGPKTRENQQDVHFMKRYPKGQPELQKPFKYTTVTKGGGGSGGGGSGGGGSDIQMTQSPSSLSASAGDRVTITCRASQAIRNDLGWYQQKPGKAPKRLIYAAFNLQSGVPSRFSGSGSGTEFTLTISSLQPEDLASYYCQQYNRYPWTFGQGTKVEIKGGGGSGGGGSGGGGSQVQLVQSGAEVKKPGASVKVSCKVSGFTLTELSIHWVRQAPGKGLEWMGGFDPEDGETIYAQKFQGRVTMTEDTSTDTAYMELTSLRSEDTAVYYCSTIFGVVTNFDNWGQGTLVTVSS
B7 was tested, and the “anti-NGF IC50 (nM), U2OS TrkA_p75 assay; construct from HEK293” value [1] was 0.62 nM and the “FGF18 EC50 (nM), BaF3/FGFR3 assay; construct from HEK293” value [2] was 0.06 nM.

— patent US20200299347A1 (Merck KGaA, published 2020)
